Assay results published in publication PMC11130540, “Does Acinetobacter calcoaceticus glucose dehydrogenase produce self-damaging H2O2?” (Bioscience Reports, 2024).

Target: the molecule itself
Experiment: crystal structure; holo-sGDH (around 10 mg/ml) reconstituted with PQQ before crystallization; hanging drop vapor diffusion at 20°C, 20% (w/v) PEG 6000, 100 mM TRIS pH 8.0, with 2 mM zinc chloride (wild-type) or 200 mM lithium chloride (mutants); two monomers in the asymmetric unit

Row | Protein | stoichiometry N
1 | soluble glucose dehydrogenase (sGDH) from Acinetobacter calcoaceticus, wild-type, holo form (enzyme, UniProt P13650 25-478, looked up, soluble glucose dehydrogenase (sGDH) of Acinetobacter calcoaceticus, UniProt P13650; native open reading frame on plasmid pGP492; printed number + 24 in P13650; Holo enzyme with the prosthetic group PQQ (found cleaved in the crystals) and calcium ions; No tag is named; also called sGDH WT; WT) DVPLTPSQFAKAKSENFDKKVILSNLNKPHALLWGPDNQIWLTERATGKILRVNPESGSVKTVFQVPEIVNDADGQNGLLGFAFHPDFKNNPYIYISGTFKNPKSTDKELPNQTIIRRYTYNKSTDTLEKPVDLLAGLPSSKDHQSGRLVIGPDQKIYYTIGDQGRNQLAYLFLPNQAQHTPTQQELNGKDYHTYMGKVLRLNLDGSIPKDNPSFNGVVSHIYTLGHRNPQGLAFTPNGKLLQSEQGPNSDDEINLIVKGGNYGWPNVAGYKDDSGYAYANYSAAANKSIKDLAQNGVKVAAGVPVTKESEWTGKNFVPPLKTLYTVQDTYNYNDPTCGEMTYICWPTVAPSSAYVYKGGKKAITGWENTLLVPSLKRGVIFRIKLDPTYSTTYDDAVPMFKSNNRYRDVIASPDGNVLYVLTDTAGNVQKDDGSVTNTLENPGSLIKFTYKAK | 2
2 | soluble glucose dehydrogenase (sGDH) from Acinetobacter calcoaceticus, Y343F mutant, holo form (enzyme, soluble glucose dehydrogenase (sGDH) of Acinetobacter calcoaceticus, UniProt P13650, with Y343F; Holo enzyme with PQQ (found cleaved in the crystals) and calcium ions; No tag is named; also called sGDH Y343F; single mutant) DVPLTPSQFAKAKSENFDKKVILSNLNKPHALLWGPDNQIWLTERATGKILRVNPESGSVKTVFQVPEIVNDADGQNGLLGFAFHPDFKNNPYIYISGTFKNPKSTDKELPNQTIIRRYTYNKSTDTLEKPVDLLAGLPSSKDHQSGRLVIGPDQKIYYTIGDQGRNQLAYLFLPNQAQHTPTQQELNGKDYHTYMGKVLRLNLDGSIPKDNPSFNGVVSHIYTLGHRNPQGLAFTPNGKLLQSEQGPNSDDEINLIVKGGNYGWPNVAGYKDDSGYAYANYSAAANKSIKDLAQNGVKVAAGVPVTKESEWTGKNFVPPLKTLYTVQDTYNYNDPTCGEMTFICWPTVAPSSAYVYKGGKKAITGWENTLLVPSLKRGVIFRIKLDPTYSTTYDDAVPMFKSNNRYRDVIASPDGNVLYVLTDTAGNVQKDDGSVTNTLENPGSLIKFTYKAK | 2
3 | soluble glucose dehydrogenase (sGDH) from Acinetobacter calcoaceticus, D143E/Y343F mutant, holo form (enzyme, soluble glucose dehydrogenase (sGDH) of Acinetobacter calcoaceticus, UniProt P13650, with D143E and Y343F; Holo enzyme with PQQ (found cleaved in the crystals) and calcium ions; No tag is named; also called sGDH D143E/Y343F; Y343F/D143E) DVPLTPSQFAKAKSENFDKKVILSNLNKPHALLWGPDNQIWLTERATGKILRVNPESGSVKTVFQVPEIVNDADGQNGLLGFAFHPDFKNNPYIYISGTFKNPKSTDKELPNQTIIRRYTYNKSTDTLEKPVDLLAGLPSSKEHQSGRLVIGPDQKIYYTIGDQGRNQLAYLFLPNQAQHTPTQQELNGKDYHTYMGKVLRLNLDGSIPKDNPSFNGVVSHIYTLGHRNPQGLAFTPNGKLLQSEQGPNSDDEINLIVKGGNYGWPNVAGYKDDSGYAYANYSAAANKSIKDLAQNGVKVAAGVPVTKESEWTGKNFVPPLKTLYTVQDTYNYNDPTCGEMTFICWPTVAPSSAYVYKGGKKAITGWENTLLVPSLKRGVIFRIKLDPTYSTTYDDAVPMFKSNNRYRDVIASPDGNVLYVLTDTAGNVQKDDGSVTNTLENPGSLIKFTYKAK | 2
